Test results from patent publication US20160084841A1, “Method for Predicting Clinical Effect of Immunotherapy” (INTERNATIONAL INSTITUTE OF CANCER IMMUNOLOGY, INC., priority 2013, published 2016).

What was measured:
[1] = tested on: anti-WT1126 peptide IgG antibody; test: ELISA using variant WT1 antigen peptide as immobilized antigen to assay anti-WT1126 peptide IgG antibody; assay type: binding, human; settings: serum of pancreatic cancer patient given WT1126 peptide; increase in titer detected; FIG. 20
Experimental: WT126-134 (SEQ ID NO: 65), WK126-134 (SEQ ID NO: 66), WT128-134 (SEQ ID NO: 67), WT126-132 (SEQ ID NO: 68), WT129-134 (SEQ ID NO: 69), WT126-131 (SEQ ID NO: 70), and WT126-130 (SEQ ID NO: 71) were synthesized by GL Biochem (Shanghai) Corporation Ltd. WT1-frg1 (SEQ ID NO: 64) was prepared in the same way as in the aforementioned WT1-frg3 (SEQ ID NO: 57).
The measurement of the antibody titer using WT1-frg1 (SEQ ID NO: 64) was performed in the same way as in the aforementioned WT1-frg3 (SEQ ID NO: 57). The measurement of the antibody titer using WT126-134 (SEQ ID NO: 65), WK126-134 (SEQ ID NO: 66), WT128-134 (SEQ ID NO: 67), WT126-132 (SEQ ID NO: 68), WT129-134 (SEQ ID NO: 69), WT126-131 (SEQ ID NO: 70), or WT126-130 (SEQ ID NO: 71) was performed in the same way as in the aforementioned WT332-347 (SEQ ID NO: 58), etc.

[2] = tested on: anti-WT1235 peptide IgG antibody; test: ELISA using variant WT1 antigen peptide as immobilized antigen to assay anti-WT1235 peptide IgG antibody; assay type: binding, human; settings: serum of thymic carcinoma patient given WT1235 peptide; increase in titer detected; FIG. 19
Experimental: WK235-243 (SEQ ID NO: 62) and WT237-243 (SEQ ID NO: 63) were synthesized by GL Biochem (Shanghai) Corporation Ltd. WT1-frg2 (SEQ ID NO: 61) was prepared in the same way as in the aforementioned WT1-frg3 (SEQ ID NO: 57).
The measurement of the antibody titer using WT1-frg2 (SEQ ID NO: 61) was performed in the same way as in the aforementioned WT1-frg3 (SEQ ID NO: 57). The measurement of the antibody titer using WK235-243 (SEQ ID NO: 62) or WT237-243 (SEQ ID NO: 63) was performed in the same way as in the aforementioned WT332-347 (SEQ ID NO: 58), etc.

Row | Molecule | ability as ELISA antigen to measure anti-WT1126 IgG antibody level in patient's serum [1] | ability as ELISA antigen to measure anti-WT1235 IgG antibody level in patient's serum [2]
1 | WT1-frg1: long-chain peptide (182 aa, SEQ ID NO: 64) containing the whole length of the administered WT1126 peptide (protein) MGSDVRDLNALLPAVPSLGGGGGCALPVSGAAQWAPVLDFAPPGASAYGSLGGPAPPPAPPPPPPPPPHSFIKQEPSWGGAEPHEEQCLSAFTVHFSGQFTGTAGACRYGPFGPPPPSQASSGQARMFPNAPYLPSCLESQPAIRNQGYSTVTFDGTPSYGHTPSHHAAQFPNHSFKHEDPM | could measure an anti-WT1126 IgG antibody level in patient's serum | 
2 | WT1-frg2: long chain peptide (145 aa, SEQ ID NO: 61) containing the whole length (Y2M) of the administered WT1235 peptide (protein) DPMGQQGSLGEQQYSVPPPVYGCHTPTDSCTGSQALLLRTPYSSDNLYQMTSQLECMTWNQMNLGATLKGVAAGSSSSVKWTEGQSNHSTGYESDNHTTPILCGAQYRIHTHGVFRGIQDVRRVPGVAPTLVRSASETSEKRPFM |  | could measure an anti-WT1235 IgG antibody level in patient's serum
